Data published in paper PMC3830641 (Biochemistry, 2013).
Residue numbers refer to the chain shown, from its start. Names and notes keep the numbering of the source.

B1: EL368, LOV-histidine kinase from Erythrobacter litoralis HTCC2594 (enzyme, UniProt Q2NCA3 1-360, looked up)
chain: MPLKGEISAQAGREFDTSRLDLRAIIDPRDLRVDPTRLFLETTQQTRLAICISDPHQPDCPVVYVNQAFLDLTGYAREEIVGRNCRFLQGADTDPEQVRKLREGIAAERYTVVDLLNYRKDGIPFWNAVHVGPIYGEDGTLQYFYGSQWDITDIVAERRKAETQRRIAAELRHRTGNIFAVLNAIIGLTSRRERDVSEFADKLSERVSALASAHRMTIMDEPDQEAVAIDDLVTGVMKPYRNRFAERVTTSGPKIELGPRSVTALGLALHELATNAVKYGALSVDAGRVEISWSREDGDVTLVWQEQGGPTVSQEQSEPVKGNGTMLIDGMIASLTGSIERDFAAAGLQAKITLPVHQPE
B2: EL362, LOV-histidine kinase from Erythrobacter litoralis HTCC2594 (wild type, Arg 150) (enzyme, UniProt Q2N9L9 1-362, looked up)
chain: MDDQPTTRANRVGHPESSRQAYSSESGATHGSLAFPGASGLLFEQAMAQTRMAVCLTDPHQPDHPIVFCNAAFERLTGYEEKDIIGRNCRFLQGARTDESQVARIRDALAKEEVAVVELLNYRKDGSTFWNALHLGPIYDESGKLKYFFRSQWDVTDIHEARAEQRHAKAMAREVSHRLKNVFSVIAGIVNITGRSMDARPVASRINERVQALGRAYEPTLDEAFMGTIEVGQAIRAILAPYDPEGDRVSLEGNGVRTEPNAISSIGLTLHELASNAIKYGALSNETGTIDVSWHHERDDHDRRRLVIDWKESGGPTIEGPPETGGTGFDISETLLSYSNGTLEKRWDRDGLFVRIAIPIEQ
B3: EL362(R150G) (enzyme, Erythrobacter litoralis HTCC2594, UniProt Q2N9L9 1-362, looked up)
chain: B2 chain with R150G

Tests used:
[1] = biological target: anti-σ factor (ELI_10225) from Erythrobacter litoralis HTCC2594 (Erythrobacter litoralis HTCC2594) (UniProt Q2N854); experiment: SEC-MALS
SEC-MALS = biological target: the molecule itself; experiment: SEC-MALS

Molecule | binding result (SEC-MALS) | also measured
phospho-EL_PhyR (EL_PhyR phosphorylated by EL368 and ATP) (from UniProt Q2N856 1-266) (natural protein) | – | stoichiometry N [1]: 1
B1 | – | stoichiometry N (SEC-MALS): 2
B2 | binds | –
B3 | binds | –
